Results as given in paper PMC11829017.

Assays:
[1] = biological target: E. coli ρ G150D with the sensor cysteines C84/C405 (X1), untagged (E. coli MG1655) (UniProt P0AG30); assay: cross-linking; BMOE (0.5 mM) crosslinking of 1 μM purified ρ in PN23 buffer without nucleotide; LDS-PAGE
[2] = biological target: E. coli ρ G150D with the sensor cysteines C84/C405 (X1), untagged (E. coli MG1655) (UniProt P0AG30); assay: cross-linking; BMOE (0.5 mM) crosslinking of 1 μM purified untagged ρ in PN23 buffer with ppGpp or pppGpp; LDS-PAGE
[3] = biological target: E. coli ρ G150D with the sensor cysteines C84/C405 (X1), untagged (E. coli MG1655) (UniProt P0AG30); assay: cross-linking; BMOE (0.5 mM) crosslinking of 1 μM purified ρ in PN23 buffer with 2 mM ADP, 10 min at room temperature; LDS-PAGE

percent of ρ in the filament fraction [1]: 18%
stoichiometry N [2]: 12
percent of ρ in the filament fraction [3]: 56%
Substance: E. coli ρ G150D with the sensor cysteines C84/C405 (X1), untagged (from UniProt P0AG30 1-419) (enzyme)
